Results published in US20240116985A1 (published 2024).
Starred links: 1 amine or outer side, 2 acyl side, 3 side chain; linkers in the order of their positions; H or OH if unused. Positions of bridges follow the written chain, without caps; N, C: chain ends. Non-standard residues stand in square brackets, D forms with d. Primed or numbered codes have the meaning given here. *: point of attachment. PyrS2(3) = (S)-3-amino-1-((pent-4-en-1-yloxy)carbonyl)pyrrolidine-3-carboxylic acid, stapling residue, C=CCCCOC(=O)N1CC[C@@](N[*:1])(C(=O)[*:2])C1; PyrS2″ = (S)-3-amino-1-((pent-4-en-1-yloxy)carbonyl)pyrrolidine-3-carboxylic acid (stapling residue), C=CCCCOC(=O)N1CC[C@@](N[*:1])(C(=O)[*:2])C1; B5(16) = 2-amino-2-(pent-4-en-1-yl)hept-6-enoic acid = 2,2-bis(4-pentenyl)glycine (stitching residue), C=CCCCC(CCCC=C)(N[*:1])C(=O)[*:2]; B5(18) = 2,2-bis(4-pentenyl)glycine (2-amino-2-(pent-4-en-1-yl)hept-6-enoic acid), stitching residue, C=CCCCC(CCCC=C)(N[*:1])C(=O)[*:2]; B5(5) = 2,2-bis(4-pentenyl)glycine, 2-amino-2-(pent-4-en-1-yl)hept-6-enoic acid (stitching residue), C=CCCCC(CCCC=C)(N[*:1])C(=O)[*:2]; TfeGA = (S)-2-amino-3-((carboxymethyl)(2,2,2-trifluoroethyl)amino)propanoic acid, O=C([C@H](CN(CC(=O)[*:3])CC(F)(F)F)N[*:1])[*:2]; PyrS2 = (S)-3-amino-1-((pent-4-en-1-yloxy)carbonyl)pyrrolidine-3-carboxylic acid, C=CCCCOC(=O)N1CC[C@@](N[*:1])(C(=O)[*:2])C1; 2COOH4NO2Ph = 2-carboxy-4-nitrophenyl group on the side chain (attached at Dap N or Cys S), O=C(O)c1cc([N+](=O)[O-])ccc1*; B5(12) = 2-amino-2-(pent-4-en-1-yl)hept-6-enoic acid (two olefin side chains), C=CCCCC(CCCC=C)(N[*:1])C(=O)[*:2]; HypEs5 = (2R,4S)-4-(pent-4-enoyloxy)pyrrolidine-2-carboxylic acid, C=CCCC(=O)O[C@H]1C[C@H](C(=O)[*:2])N([*:1])C1; 2COOHF = (S)-2-(2-amino-2-carboxyethyl)benzoic acid, O=C([C@H](Cc1ccccc1C(=O)[*:3])N[*:1])[*:2]; GAbu = (S)-2-amino-4-((carboxymethyl)amino)butanoic acid, O=C([C@H](CCNCC(=O)[*:3])N[*:1])[*:2]; B5(3) = 2,2-bis(4-pentenyl)glycine (stitching residue), C=CCCCC(CCCC=C)(N[*:1])C(=O)[*:2]; Phe(3-COOH) = N[C@@H](Cc1cccc(C(=O)O)c1)C(=O)O; Phe(4-COOH) = N[C@@H](Cc1ccc(C(=O)O)cc1)C(=O)O; Trp(7-F) = N[C@@H](Cc1c[nH]c2c(F)cccc12)C(=O)O; Phe(2-Cl) = N[C@@H](Cc1ccccc1Cl)C(=O)O; Bta = N[C@@H](Cc1csc2ccccc12)C(=O)O; αAllylPro = C=CC[C@@]1(C(=O)O)CCCN1; tBuAla = CC(C)(C)C[C@H](N)C(=O)O; 3Thi = N[C@@H](Cc1ccsc1)C(=O)O; Cit = NC(=O)NCCC[C@H](N)C(=O)O; S8 = C=CCCCCCC[C@](C)(N)C(=O)O; PyrS2(4) = not defined here; TfeGA″ = not defined here; 2Nic = not defined here; Dap = NC[C@H](N)C(=O)O

B1: I-155 (peptide)
peptide: ADIXDEAAFAXFWA
modifications: not fully specified; as printed: Ac-Ala-Asp-Ile-RdN-Asp-Glu-Ala-Ala-Phe-Ala-S7-Phe-Trp-Ala-NH2; N-terminal acetyl, C-terminal amide; RdN(4), S7(11); staple RdN-S7 by olefin metathesis
notes: stapled peptide

Key:
[1] = molecular target: T1, B-cat-Halo (UniProt P35222 1-781); assay: cell-based or functional assay
T1 sequence (looked up): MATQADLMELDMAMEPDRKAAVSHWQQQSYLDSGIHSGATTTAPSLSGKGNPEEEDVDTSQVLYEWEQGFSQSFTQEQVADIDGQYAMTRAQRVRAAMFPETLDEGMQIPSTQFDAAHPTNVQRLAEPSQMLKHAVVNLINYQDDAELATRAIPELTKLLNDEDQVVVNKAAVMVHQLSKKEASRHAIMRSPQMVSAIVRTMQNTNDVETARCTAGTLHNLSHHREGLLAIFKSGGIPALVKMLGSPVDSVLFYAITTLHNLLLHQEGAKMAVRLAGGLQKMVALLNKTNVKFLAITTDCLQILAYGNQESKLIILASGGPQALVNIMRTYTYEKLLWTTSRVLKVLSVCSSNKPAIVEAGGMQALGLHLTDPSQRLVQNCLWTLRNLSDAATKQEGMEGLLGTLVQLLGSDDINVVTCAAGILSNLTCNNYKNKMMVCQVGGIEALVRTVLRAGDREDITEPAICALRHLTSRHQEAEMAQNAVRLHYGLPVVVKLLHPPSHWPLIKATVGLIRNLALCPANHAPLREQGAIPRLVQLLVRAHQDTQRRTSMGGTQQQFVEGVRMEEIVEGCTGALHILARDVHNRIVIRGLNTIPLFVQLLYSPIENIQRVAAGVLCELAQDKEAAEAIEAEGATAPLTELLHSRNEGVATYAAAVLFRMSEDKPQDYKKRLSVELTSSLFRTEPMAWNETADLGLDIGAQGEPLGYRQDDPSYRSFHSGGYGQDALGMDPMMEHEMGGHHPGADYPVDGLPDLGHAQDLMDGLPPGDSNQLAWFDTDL

[2] = molecular target: T2, B-cat-Halo (beta-catenin HaloTag construct expressed in HEK293 cells) (UniProt P35222 1-781); assay: cell-based or functional assay
T2 sequence (looked up): T1 sequence (looked up)

[3] = molecular target: T3, full-length beta-Catenin (Uniprot ID P35222) (Homo sapiens (Human), UniProt P35222 2-781); assay: AlphaScreen competition; full-length beta-catenin with biotin-TCF4(10-53) probe as competitor
T3 construct: the AlphaScreen assay uses a Histidine (Nickel Chelate) detection kit, so a His tag is likely there; also called B-Catenin; bCat
T3 sequence: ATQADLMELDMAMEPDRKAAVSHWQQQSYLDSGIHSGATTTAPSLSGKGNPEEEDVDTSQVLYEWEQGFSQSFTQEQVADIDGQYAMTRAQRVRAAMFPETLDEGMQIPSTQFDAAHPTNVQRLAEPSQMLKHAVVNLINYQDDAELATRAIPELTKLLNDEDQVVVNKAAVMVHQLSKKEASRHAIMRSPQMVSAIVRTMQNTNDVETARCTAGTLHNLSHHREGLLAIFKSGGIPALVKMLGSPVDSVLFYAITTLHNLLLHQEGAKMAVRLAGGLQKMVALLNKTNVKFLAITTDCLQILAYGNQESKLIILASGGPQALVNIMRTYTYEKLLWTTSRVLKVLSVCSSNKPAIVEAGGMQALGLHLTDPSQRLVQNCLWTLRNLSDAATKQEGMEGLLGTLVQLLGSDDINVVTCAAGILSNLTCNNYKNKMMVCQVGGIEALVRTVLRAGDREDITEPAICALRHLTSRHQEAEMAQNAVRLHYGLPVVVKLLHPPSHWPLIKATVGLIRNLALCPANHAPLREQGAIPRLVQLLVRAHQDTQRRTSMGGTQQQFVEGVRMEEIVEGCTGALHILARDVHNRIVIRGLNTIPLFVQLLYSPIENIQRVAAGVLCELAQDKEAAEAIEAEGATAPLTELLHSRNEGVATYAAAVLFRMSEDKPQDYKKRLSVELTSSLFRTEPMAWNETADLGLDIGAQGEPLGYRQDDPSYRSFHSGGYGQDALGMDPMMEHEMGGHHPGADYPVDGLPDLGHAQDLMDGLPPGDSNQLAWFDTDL
Protocol: Equal volume of the titrated peptide was added to the plate and incubated for 15 minutes at 20° C. Then 4 uL of donor and 4 uL acceptor beads at 10 ug/mL were added to the plate, for a 16 uL reaction pool and protected from light for 60 minutes at 20° C. prior to read. Reads were performed on a CLARIOstar plate reader (BMG Labtech) in duplicate, and data were fitted to a 1:1 binding model with hill slope using an in-house script. All provided concentrations are final concentrations.

[4] = molecular target: T3, full-length beta-Catenin (Uniprot ID …); assay: fluorescence polarization competition; full-length beta-catenin with 5FAM-TCF4(10-53) probe as competitor
Protocol: The plate was incubated protected from light for 60 minutes at 20° C. prior to read. Reads were performed on a CLARIOstar plate reader (BMG Labtech) in duplicate, and data were fitted to a 1:1 binding model with hill slope using an in-house script. All provided concentrations are final concentrations.

Binder	NanoBRET Abs IC50 [1]	NanoBRET Abs IC50 [2]	further results
Ac-[αAllylPro]D[tBuAla][B5(3)]D[Cit]AAFN[PyrS2″][3Thi][Bta]H-NH2 (staple 1-4, 4-11) [I-841]	34.4 µM	–	–
Ac-[αAllylPro]D[tBuAla][B5(18)]D[Dap](2Nic)AAFL[PyrS2(3)][3Thi][Bta]Q-NH2 (staple 1-4, 4-11; reading uncertain) [I-1845]	–	6.3 µM	–
Ac-[αAllylPro]D[tBuAla][B5(18)]DC(2COOH4NO2Ph)AAFL[PyrS2(3)][3Thi][Bta]Q-NH2 (staple 1-4, 4-11) [I-1848]	–	> 20 µM	–
Ac-[αAllylPro]D[tBuAla][B5(18)]D[Dap](2COOH4NO2Ph)AAFL[PyrS2(3)][3Thi][Bta]Q-NH2 (staple 1-4, 4-11) [I-1843]	–	9.5 µM	–
Ac-[αAllylPro]D[tBuAla][B5(3)]DQAAFN[PyrS2″][3Thi][Bta]H-NH2 (staple 1-4, 4-11) [I-839]	41.9 µM	–	–
Ac-[αAllylPro]D[tBuAla][B5(3)]DQAAFN[PyrS2″][3Thi][Bta]Q-NH2 (staple 1-4, 4-11) [I-838]	17.4 µM	–	–
Ac-[αAllylPro]DA[B5(16)]DEAAFV[S8]F[Trp(7-F)]Q-NH2 (staple 1-4, 4-11, stapled peptide composition) [I-166]	–	–	EC50 [3]: 0.0865 µM; EC50 [4]: 2.16 µM
Ac-[αAllylPro]D[tBuAla][B5(18)]D[GAbu](Ac)AAFL[PyrS2(3)][3Thi][Bta]Q-NH2 (staple 1-4, 4-11; also: double bonds not converted) [I-1840]	–	22.3 µM	–
Ac-[αAllylPro]D[tBuAla][B5(18)]D[GAbu]AAFL[PyrS2(3)][3Thi][Bta]Q-NH2 (staple 1-4, 4-11) [I-1841]	–	> 20 µM	–
Ac-[αAllylPro]D[tBuAla][B5(3)]D[Phe(4-COOH)]AAFF[PyrS2][3Thi][Bta]Q-NH2 (staple 1-4, 4-11) [I-850]	16.4 µM	–	–
Ac-[HypEs5]D[tBuAla][B5(18)]D[TfeGA]AAFT[PyrS2(3)][Phe(2-Cl)][Bta]Q-NH2 (staple 1-4, 4-11) [I-1846]	–	29.8 µM	–
Ac-[αAllylPro]D[tBuAla][B5(3)]DNAAFN[PyrS2″][3Thi][Bta]H-NH2 (staple 1-4, 4-11) [I-837]	23.8 µM	–	–
Ac-[αAllylPro]DI[B5(5)]DDAAFQ[S8]FWH-NH2 (staple 1-4, 4-11, stapled peptide) [I-174]	–	–	EC50 [3]: 0.116 µM; EC50 [4]: 1.76 µM
Ac-[αAllylPro]D[tBuAla][B5(12)]DNAAFL[PyrS2][3Thi][Bta]Q-NH2 (staple 1-4, 4-11) [I-856]	6.8 µM	–	–
Ac-[αAllylPro]D[tBuAla][B5(3)]D[TfeGA]AAFL[PyrS2][3Thi][Bta]Q-NH2 (staple 1-4, 4-11) [I-849]	3.6 µM	–	–
Ac-[HypEs5]D[tBuAla][B5(18)]D[Phe(3-COOH)]AAFL[PyrS2(3)][Phe(2-Cl)][Bta]Q-NH2 (staple 1-4, 4-11) [I-1847]	–	26.2 µM	–
B1	–	–	EC50 [3]: 0.734 µM; EC50 [4]: 5 µM
Ac-[αAllylPro]D[tBuAla][B5(3)]D[Cit]AAFN[PyrS2″][3Thi][Bta]Q-NH2 (staple 1-4, 4-11) [I-840]	22.3 µM	–	–
Ac-[αAllylPro]D[tBuAla][B5(12)]D[2COOHF]AAFL[PyrS2][3Thi][Bta]Q-NH2 (staple 1-4, 4-11) [I-854]	3.6 µM	–	–
Ac-[αAllylPro]D[tBuAla][B5(3)]D[TfeGA″]AAFF[PyrS2(4)][3Thi][Bta]Q-NH2 (staple 1-4, 4-11; reading uncertain) [I-848]	7 µM	–	–
Ac-[αAllylPro]D[tBuAla][B5(18)]D[Phe(3-COOH)]AAFA[PyrS2(3)][Phe(2-Cl)][Bta]S-NH2 (staple 1-4, 4-11) [I-1849]	–	8.8 µM	–
Ac-[αAllylPro]D[tBuAla][B5(3)]DLAAFN[PyrS2(4)][3Thi][Bta]H-NH2 (staple 1-4, 4-11; reading uncertain) [I-847]	> 20 µM	–	–
Ac-[αAllylPro]D[tBuAla][B5(3)]D[Phe(4-COOH)]AAFL[PyrS2][3Thi][Bta]Q-NH2 (staple 1-4, 4-11) [I-851]	7.6 µM	–	–
Ac-[αAllylPro]D[tBuAla][B5(3)]D[Phe(3-COOH)]AAFF[PyrS2][3Thi][Bta]Q-NH2 (staple 1-4, 4-11) [I-852]	2.8 µM	–	–
Ac-[αAllylPro]D[tBuAla][B5(3)]DYAAFN[PyrS2″][3Thi][Bta]Q-NH2 (staple 1-4, 4-11) [I-842]	47.9 µM	–	–
Ac-[αAllylPro]DI[B5(5)]DDAAFQ[S8]FWH-NH2 (staple 1-4, 4-11, stapled peptide) [I-175]	–	–	EC50 [3]: 0.116 µM; EC50 [4]: 1.76 µM
